“And” between values parts separate entries of the source, which are not always exact repeats. Identical values can stand only once.
Columns and labels:
[1] = target: Surfactant associated protein-A (human (endogenous in BAL fluid and serum)) (UniProt Q8IWL2)
[2] = target: Surfactant associated protein-A (human (endogenous in BAL fluid and serum)) (UniProt Q8IWL2); assay: SEC; Superose 6 column, 500 µl of serum loaded, fractions of 800 µl, SP-A in the fractions by slot blot; column calibrated with blue dextran (2000 kDa), holotransferrin (669 kDa) and bovine serum albumin (66 kDa); a peak counts as present at 20 % or more of total SP-A
[3] = target: Surfactant associated protein-A (human (endogenous in BAL fluid and serum)) (UniProt Q8IWL2); assay: as above; remark: listed apart in the source
[4] = target: Surfactant associated protein-A (human (endogenous in BAL fluid and serum)) (UniProt Q8IWL2); assay: SEC; Superose 6 column, 1 ml of BAL fluid loaded, fractions of 800 µl, SP-A in the fractions by slot blot; column calibrated with blue dextran (2000 kDa), holotransferrin (669 kDa) and bovine serum albumin (66 kDa); a peak counts as present at 20 % or more of total SP-A

Surfactant associated protein-A (from UniProt Q8IWL2 21-248) (natural protein)
size of agglutinates of anti-SP-A latex beads; BAL, 6mers, chronic bronchitis (n = 10) [1]: 316 Pixel
size of agglutinates of anti-SP-A latex beads; BAL, 6mers, controls (n = 10) [1]: 352 Pixel
size of agglutinates of anti-SP-A latex beads; BAL, 6mers, cystic fibrosis (n = 10) [1]: 234 Pixel
size of agglutinates of anti-SP-A latex beads; BAL, 18mers, chronic bronchitis (n = 10) [1]: 370 Pixel
size of agglutinates of anti-SP-A latex beads; BAL, 18mers, controls (n = 10) [1]: 517 Pixel
size of agglutinates of anti-SP-A latex beads; BAL, 18mers, cystic fibrosis (n = 10) [1]: 316 Pixel
size of agglutinates of anti-SP-A latex beads; BAL, trimers, chronic bronchitis (n = 10) [1]: 114 Pixel
size of agglutinates of anti-SP-A latex beads; BAL, trimers, controls (n = 10) [1]: 118 Pixel
size of agglutinates of anti-SP-A latex beads; BAL, trimers, cystic fibrosis (n = 10) [1]: 74 Pixel
size of agglutinates of anti-SP-A latex beads; serum, 6mers, chronic bronchitis (n = 10) [1]: 377 Pixel
size of agglutinates of anti-SP-A latex beads; serum, 6mers, controls (n = 10) [1]: 361 Pixel
size of agglutinates of anti-SP-A latex beads; serum, 6mers, cystic fibrosis (n = 10) [1]: 380 Pixel
size of agglutinates of anti-SP-A latex beads; serum, 18mers, chronic bronchitis (n = 10) [1]: 469 Pixel
size of agglutinates of anti-SP-A latex beads; serum, 18mers, controls (n = 10) [1]: 525 Pixel
size of agglutinates of anti-SP-A latex beads; serum, 18mers, cystic fibrosis (n = 10) [1]: 481 Pixel
size of agglutinates of anti-SP-A latex beads; serum, trimers, chronic bronchitis (n = 10) [1]: 143 Pixel
size of agglutinates of anti-SP-A latex beads; serum, trimers, controls (n = 10) [1]: 132 Pixel
size of agglutinates of anti-SP-A latex beads; serum, trimers, cystic fibrosis (n = 10) [1]: 146 Pixel
stoichiometry N [2]: 18
stoichiometry N [3]: 2 and 3
stoichiometry N [4]: 18
